Values of other authors as cited in US20230192878A1, “METHODS, THERAPIES AND USES FOR TREATING CANCER” (PFIZER INC., priority 2020, published 2023).

Target: T1, BCMA (Homo sapiens, UniProt Q02223)
T1 sequence (Q02223 1-184): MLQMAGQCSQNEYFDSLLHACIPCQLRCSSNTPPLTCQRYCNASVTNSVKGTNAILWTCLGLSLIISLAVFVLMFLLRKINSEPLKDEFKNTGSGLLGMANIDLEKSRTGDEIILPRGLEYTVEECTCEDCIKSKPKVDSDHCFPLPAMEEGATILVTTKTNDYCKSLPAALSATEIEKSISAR
Conditions: binding to BCMA; read-out: affinity; cited from earlier work

| Substance | Kd [nM] |
| --- | --- |
| APRIL: a proliferation-inducing ligand, ligand of BCMA | 16 |
| BAFF: B-cell activation factor, ligand of BCMA | 1000 |
